Experiment [1] has as its target recombinant gp120 JR-FL (HIV-1). The experiment is described as follows: ELISA. (ELISA stands for enzyme-linked immunosorbent assay.)
Experiment [2] deals with recombinant gp120 MSC5007 (HIV-1). In words: ELISA.
The target of experiment [3] is Env of pseudovirus SF162.LS (HIV-1).
Experiment [4] deals with Env of pseudovirus Bx08.16 (HIV-1).
The target in experiment [5] is Env of pseudovirus SS1196.1 (HIV-1).
The target of experiment [6] is Env of pseudovirus 6535.3 (HIV-1).
The target of experiment [7] is Env of pseudovirus BaL.26 (HIV-1).
In experiment [8] the target is Env of pseudovirus HXB2.DG (HIV-1) (UniProt P04578).
Experiment [9] has as its target Env of pseudovirus MW965.26 (HIV-1).
The target of experiment [10] is Env of pseudovirus DJ263.8 (HIV-1).
The target in experiment [11] is recombinant gp120 ZM53M (HIV-1). The experiment is described as follows: ELISA.
The target of experiment [12] is recombinant gp120 REJO4541 (HIV-1). In words: ELISA.
Experiment [13] has as its target fusion protein V1V2_(Case-A2)-gp70 (HIV-1). In words: ELISA.

A value given as a limit tells only on which side of the number the result lay.

Consider human anti-V2 monoclonal antibody 697, for which the O.D. (ELISA, mAb at 10 μg/ml) in experiment [1] was found to be 4 O.D.
As to human anti-V2 monoclonal antibody 830A, in experiment [2], the O.D. (ELISA, mAb at 10 μg/ml) was found to be 4 O.D. Further, the IC50 of neutralisation of pseudovirus SF162.LS (TZM-bl cell assay) in experiment [3] is 6.2 µg/mL. The molecule further gave an IC50 of neutralisation of pseudovirus Bx08.16 (TZM-bl cell assay) in [4] of more than 50 µg/mL. In experiment [5], this molecule had an IC50 of neutralisation of pseudovirus SS1196.1 (TZM-bl cell assay) of more than 50 µg/mL. This molecule also had an IC50 of neutralisation of pseudovirus 6535.3 (TZM-bl cell assay) in experiment [6] of more than 50 µg/mL. For the same molecule, in experiment [7], the IC50 of neutralisation of pseudovirus BaL.26 (TZM-bl cell assay) came to 36.1 µg/mL. In addition, the IC50 of neutralisation of pseudovirus HXB2.DG (TZM-bl cell assay) in experiment [8] is more than 50 µg/mL. In [9], this molecule had an IC50 of neutralisation of pseudovirus MW965.26 (TZM-bl cell assay) of less than 0.4 µg/mL.
As for human anti-V2 monoclonal antibody 1357, the O.D. (ELISA, mAb at 10 μg/ml) in experiment [1] amounted to 4 O.D. The molecule further displayed an IC50 of neutralisation of pseudovirus SF162.LS (TZM-bl cell assay) in experiment [3] of 33.5 µg/mL. For the same molecule, the IC50 of neutralisation of pseudovirus DJ263.8 (TZM-bl cell assay) in experiment [10] stood at 29.2 µg/mL. In experiment [8], this molecule had an IC50 of neutralisation of pseudovirus HXB2.DG (TZM-bl cell assay) of 36.9 µg/mL. In [9], this molecule showed an IC50 of neutralisation of pseudovirus MW965.26 (TZM-bl cell assay) of 0.8 µg/mL.
For human anti-V2 monoclonal antibody 1361, in experiment [11], the O.D. (ELISA, mAb at 10 μg/ml) came to 4 O.D. The IC50 of neutralisation of pseudovirus SF162.LS (TZM-bl cell assay) in experiment [3] is 5.4 µg/mL. The molecule also came in with an IC50 of neutralisation of pseudovirus SS1196.1 (TZM-bl cell assay) in [5] of 23.8 µg/mL. The same molecule returned an IC50 of neutralisation of pseudovirus DJ263.8 (TZM-bl cell assay) in experiment [10] of 11.8 µg/mL. The molecule also returned an IC50 of neutralisation of pseudovirus HXB2.DG (TZM-bl cell assay) in experiment [8] of 18.6 µg/mL. The IC50 of neutralisation of pseudovirus MW965.26 (TZM-bl cell assay) in experiment [9] was less than 0.4 µg/mL.
Consider human anti-V2 monoclonal antibody 1393A, for which, in experiment [1], the O.D. (ELISA, mAb at 10 μg/ml) stood at 4 O.D. In experiment [3], this molecule displayed an IC50 of neutralisation of pseudovirus SF162.LS (TZM-bl cell assay) of 12.5 µg/mL. The IC50 of neutralisation of pseudovirus SS1196.1 (TZM-bl cell assay) in experiment [5] came out at 88.7 µg/mL. In addition, in experiment [10], the IC50 of neutralisation of pseudovirus DJ263.8 (TZM-bl cell assay) was determined as 11.1 µg/mL. The same molecule had an IC50 of neutralisation of pseudovirus HXB2.DG (TZM-bl cell assay) in [8] of 19.8 µg/mL. The molecule also showed an IC50 of neutralisation of pseudovirus MW965.26 (TZM-bl cell assay) in experiment [9] of 0.8 µg/mL.
As for human anti-V2 monoclonal antibody 2158, in [3], the IC50 of neutralisation of pseudovirus SF162.LS (TZM-bl cell assay) is 6.4 µg/mL. This molecule gave an IC50 of neutralisation of pseudovirus SS1196.1 (TZM-bl cell assay) in experiment [5] of 27.6 µg/mL. The IC50 of neutralisation of pseudovirus HXB2.DG (TZM-bl cell assay) in experiment [8] is 17.8 µg/mL. For the same molecule, in experiment [9], the IC50 of neutralisation of pseudovirus MW965.26 (TZM-bl cell assay) is 0.8 µg/mL.
On to human anti-V2 monoclonal antibody 2297, for which the O.D. (ELISA, mAb at 10 μg/ml) in [12] amounted to 4 O.D. Further, the percent inhibition of the binding of biotinylated 697 to V1V2-gp70 in experiment [13] was 47%.

B1: human anti-V2 monoclonal antibody 697 (antibody, V domains shown)
VH: QVQLVQSGAEVKKPGSSVKVSCKASGGNFNTYTISWVRQAPGQGLEWMGRIIPIFGIVNPAQKFPGRVTINVDKSTNTAYMELSSLRSEDTAVYYCATSGVGLHFGYFDYWGQGTQVTVSS
VL: QSVLTQPPSVSGAPGQRVTISCTGSSSNIGAHYDVHWYQQLPGTAPKLLIYGNSNRPSGVPDRFSGSKSGTSASLAITGLQAEDEADYYCQSYDSSLSGYVFGTGTKVTVL
Molecule B1 gave an IC50 of neutralisation of pseudovirus SF162.LS (TZM-bl cell assay) in experiment [3] of 19.9 µg/mL. In experiment [4], the IC50 of neutralisation of pseudovirus Bx08.16 (TZM-bl cell assay) came out at 11.2 µg/mL. This molecule also yielded an IC50 of neutralisation of pseudovirus SS1196.1 (TZM-bl cell assay) in [5] of 16.8 µg/mL. In [10], this molecule gave an IC50 of neutralisation of pseudovirus DJ263.8 (TZM-bl cell assay) of 38.6 µg/mL. Besides, in [7], the IC50 of neutralisation of pseudovirus BaL.26 (TZM-bl cell assay) was determined as 20.2 µg/mL. Moreover, the IC50 of neutralisation of pseudovirus MW965.26 (TZM-bl cell assay) in experiment [9] was found to be 1.8 µg/mL.

Source of the values: paper PMC3572902.
